# In patent publication US20250092148A1 (Kyowa Kirin, published 2025):
# Changes are numbered by the printed parent chain.
# T1: human CD116 soluble antigen (His-tag form) (human, UniProt P15509 23-320)
# T1 construct: extracellular domain; expressed in Expi293F cells; also called hCD116-His
# T1 sequence (looked up): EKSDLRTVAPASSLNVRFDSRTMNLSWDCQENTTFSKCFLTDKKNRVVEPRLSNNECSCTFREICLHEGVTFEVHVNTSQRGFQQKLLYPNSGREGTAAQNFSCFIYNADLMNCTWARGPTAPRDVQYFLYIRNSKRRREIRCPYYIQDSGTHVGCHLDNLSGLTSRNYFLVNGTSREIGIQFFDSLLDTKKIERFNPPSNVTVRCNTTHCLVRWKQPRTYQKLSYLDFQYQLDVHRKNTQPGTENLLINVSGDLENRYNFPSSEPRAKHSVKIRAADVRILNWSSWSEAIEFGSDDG
# B1: 116-413 (Fab, V domains shown)
# VH: QVQLVQSGAEVKKPGASVKVSCKVSGYTLTDLSMHWVRQAPGKGLEWMGGFDPEDGETIYAQKFQGRVTMTEDTSTDTAYMELSSLRSEDTAVYYCATGLFYYQYGMDVWGQGTTVTVSS
# VL: not shown
# notes: phage library clone, E. coli culture supernatant
# B2: 116-463 (Fab, V domains shown)
# VH: B1 VH with L32F, S33A, M34I, T58R
# VL: not shown
# notes: as for B1
# B3: 116-398 (Fab, V domains shown)
# VH: B1 VH with Q1E, T30A, D31E, T58R, T76K, A97T, T115M
# VL: not shown
# notes: phage library clone, tested as E. coli culture supernatant (FLAG-His tag)
# B4: 116-465 (Fab, V domains shown)
# VH: B1 VH with T28P, K43E, F51S, M70V, S85N
# VL: not shown
# notes: as for B1
# B5: 116-433 (Fab, V domains shown)
# VH: B1 VH with L32F, S33A, M34I, T58R, A97T, T115L
# VL: not shown
# notes: as for B1
# B6: 116-466 (Fab, V domains shown)
# VH: B1 VH with T58R, G66D, T115L
# VL: not shown
# notes: as for B1
# B7: 116-439 (Fab, V domains shown)
# VH: B1 VH with V5Q, T58R, T115L
# VL: not shown
# notes: as for B1
# B8: 116-435 (Fab, V domains shown)
# VH: B1 VH with Q1E, D31E, T58R
# VL: not shown
# notes: as for B1
# B9: 116-412 (Fab, V domains shown)
# VH: B1 VH with Q1E, F51L, T115L
# VL: not shown
# notes: as for B1
# B10: 116-464 (Fab, V domains shown)
# VH: B1 VH with T58R, V93M
# VL: not shown
# notes: as for B1
# B11: 116-421 (Fab, V domains shown)
# VH: B1 VH with V5Q, T58R, S75A, Y95H
# VL: not shown
# notes: as for B1
# Target: T1, human CD116 soluble antigen (His-tag …)
# Assay: screening by ELISA on biotinylated antigen and by flow cytometry, E. coli supernatant
# Method: Using the obtained monoclonal Escherichia coli culture supernatant, screening for clones that bind to both human CD116 and monkey CD116 was performed by ELISA and FCM described below.
# In screening by ELISA, a MAXISORP plate (manufactured by NUNC Corporation) was immobilized with streptavidin (manufactured by Thermo Fisher Scientific) and blocked using 1% BSA-PBS (manufactured by Nacalai Tesque, Inc.), and then the biotinylated human CD116 soluble antigen (His-tag form) or the biotinylated monkey CD116 soluble antigen (His-tag form) binds thereto. Each Escherichia coli culture supernatant was added to each well of the plate and allowed to react for 60 minutes at room temperature, and then each well was washed 3 times with PBS-T.
# Next, HRP-labeled Goat poly, anti-human IgG F(ab′)₂ (manufactured by Abcam) was diluted 1000 times with 1% BSA-PBS, and 50 μL thereof was added to each well, followed by incubating at room temperature for 30 minutes. After washing the microplate 3 times with PBS-T, 50 μL of TMB color developing substrate solution (manufactured by DAKO) was added to each well, followed by incubating at room temperature for 10 minutes. A 2N HCl solution (50 μL/well) was added to each well to stop the color developing reaction, and an absorbance at a wavelength of 450 nm (reference wavelength: 570 nm) was measured using a plate reader (EnSpire: manufactured by PerkinElmer).
row,Binder,binding result
1,B1,binds
2,B2,binds
3,B3,binds
4,B4,binds
5,B5,binds
6,B6,binds
7,B7,binds
8,B8,binds
9,B9,binds
10,B10,binds
11,B11,binds
